# Target: full-length mScarlet-tagged tau (2N4R) (human) (UniProt P10636)
# Test: TIRF microscopy, condensate enrichment assay
substance,measurement,value
"GFP-tagged tau “bonsai” construct (fusion between the N- and C-terminus, lacking the MTBD)",fold enrichment within mScarlet-2N4R condensates over the lattice,1.3 fold

# Reference: PMC6748660
